PMC11091522

T1: rmCD3δε-Fc (CD3 delta/CD3 epsilon heterodimer) (mouse, UniProt P04235;P22646 22-105;22-108)
T1 sequence 1: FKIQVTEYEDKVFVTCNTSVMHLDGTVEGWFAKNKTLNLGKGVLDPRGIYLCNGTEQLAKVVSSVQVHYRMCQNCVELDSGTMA
T1 sequence 2: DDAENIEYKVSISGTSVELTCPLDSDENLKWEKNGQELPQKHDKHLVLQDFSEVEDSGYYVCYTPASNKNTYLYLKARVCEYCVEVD

B1: CD3 Apt12 monomer (XNA)
RNA: GGGAGAGAAGGAUAGGGUCCCCUGUCGAUAUCCACCGUCUGGCCCGCAUUGAUUCCUUAUACCUCCUUUCCC
modifications: 2'-fluoro pyrimidines
B2: CD3 Apt1 monomer (XNA)
RNA: GGGAGAGAAGGAUAGGGCCCCGAUUGAUUCGCAAUGUGCGUCCCCUCGUGCCUUCCUUAUACCUCCUUUCCC
modifications: 2'-fluoro pyrimidines
B3: CD3 Apt3 monomer (XNA)
RNA: GGGAGAGAAGGAUAGGGUCCCUACCUGAAACUCGAAGAUGAGCCCUGUCUGAUUCCUUAUACCUCCUUUCCC
modifications: 2'-fluoro pyrimidines
B4: CD3 Apt5 monomer (XNA)
RNA: GGGAGAGAAGGAUAGGGCCUUGCCUGCUUUCACGUGUGAUCCCUGCCCGUUUCCUUAUACCUCCUUUCCC
modifications: 2'-fluoro pyrimidines

Target: T1, rmCD3δε-Fc (CD3 delta/CD3 epsilon …)
Experiment: filter binding

| Binder | binding result |
| --- | --- |
| B1 | binds |
| B2 | binds |
| B3 | binds |
| B4 | binds |
